“And” between values parts separate entries of the source, which are not always exact repeats. Equal entries are not always repeated.
Assays:
[1] = Constant-force (CF) single-molecule optical tweezers folding assay of guanine-aptamer RNAs in guanine buffer; assay type: physicochemical; details: for F^eq / k^eq: [G] = 200 nM; for Observed nucleotides / Observed ΔXobs: CF; for k^eq: at F^eq
From the text: The aptamer folding was monitored in real time using a constant-force (CF) assay. Equilibrium sampling techniques provide unprecedented insights into the rare events in the course of folding that are otherwise difficult to identify. The technique also allows for determination of the kinetic rates that has not been fully investigated in the guanine riboswitch. The relative dynamics of the helices have been investigated in ensemble and smFRET experiments, which indicated a non-dynamic P1-P3, upon which the P2 helix switches conformations. As shown in FIG. 6A (left panel), the RNA oscillated between the linear and the hairpin conformations (E↔D↔C) at 13 pN. The distances ΔXED=7.1±0.4 nm and ΔXDC=7.9±0.4 nm correspond to the folding of a 17±1 nt (P2) and 19±1 nt (P3) respectively (FIGS. 7A-B). The conversion of distances to nucleotides in CF assay are described in Table 2.
A miniaturized dual beam optical tweezers instrument was constructed with a sampling rate of 0.4, 4 and 40 kHz. Typically, in the tweezers set up (FIGS. 2A-E), a single-molecule of RNA is held between two beads via ˜550 nucleotide (nt) long Handles A and B. Preparation of Handles and the RNA is described in the section above. The streptavidin coated polystyrene bead (diameter 1.5-1.9 μm, Spherotech Inc.) is fixed on a micropipette via suction, and the anti-digoxigenin coated bead (diameter 4.0-4.9 μm, Spherotech Inc.) is held in the dual counter-propagating laser beam. The trap stiffness, K is measured at 0.04-0.06 pN/nm from the power spectrum analysis of the Brownian motion of the trapped bead. For power spectrum analysis, a polystyrene bead with diameter ˜4.6 μm is trapped in the counter-propagating laser beam in aqueous buffer with a fixed trap position. […] The average from 10 beads yielded K˜0.049±0.0008 pN/nm, and the stoke's drag coefficient, y=0.0364±0.0002 pN. s/μm. […] However, the autocorrelation time (τ0) defined as the τ1=1/2πfc as described by Zoldak et al., “Ultrafast folding kinetics and cooperativity of villin headpiece in single-molecule force spectroscopy”. Proc. Natl. Acad. Sci. U.S.A 110, 18156 (2013) sets the detection limit for the observable kinetics, which is different from the sampling frequencies. […] The ACF for the time series of force signal, Fi, with sampling rate δ and N data points, is calculated as,
In a constant-force (CF) experiment, the RNA is held at a preset force through feedback control. The preset force typically fluctuated around the mean with a standard deviation ±0.15 pN. In this mode, data is recorded from 4-40 kHz to capture the fast intermediates. The plots are shown as extension vs. time (as in FIG. 6A). In force-jump (FJ) assay, the force is suddenly jumped from one force to another, and then held constant thereafter, as shown in FIGS. 23A-B.
All FR, CF and FJ experiments were carried out at an ambient temperature, 25±0.5° C. The buffer in the microfluidics contained 10 mM Tris-HCl, pH 7.5 at 25° C., 250 mM NaCl, 3 mM MgCl2, and purine concentrations as indicated in wild-type aptamer. Unless stated otherwise, Mg^2+ concentration in the buffer was maintained at 3 mM in all experiments. The buffer in mutant m1 contained 5 mm Mg^2+ and 1 μM G, and in m3 contained 5 mM Mg^2+ and 200 nM Guanine. For the remaining m2, m4, m5 and m6 mutants, the buffer in single-molecule experiments was supplemented only with 3 mM Mg^2+ and 200 nM Guanine.
In the force-ramp experiment, the trap was moved away (pull cycle) from the micropipette at 200 nm/sec, which corresponded to a loading rate of 7-8 pN/sec. This movement of the trap exerted a tension at the ends of the tethered RNA aptamer. […] In the constant-force (CF) experiment, the RNA was held at a preset force (FIG. 6A). The loading rate in CF experiments was zero. The preset force typically fluctuated around the mean with standard deviation ±0.15 pN. […]

[2] = Isothermal titration calorimetry (ITC); assay type: binding
Procedure: For ITC experiments, wild-type G-aptamer and the mutant RNAs were synthesized by in vitro transcription of the DNA template and purified by denaturing polyacrylamide gel electrophoresis (PAGE). The ligand guanine was introduced in the syringe, while the RNA into the sample cell at a final concentration of 10 μM and 1 μM respectively. The concentrations were determined by absorbance reading using ε260=12010 M^−1 cm^−1 (guanine) and ε260=711400 M^−1 cm^−1 (RNA). The buffer in the syringe and the sample cell contained 50 mM K^+ Hepes (pH 7.5), 100 mM KCl, and 10 mM MgCl2. Binding reactions were performed at 30° C. on a MicroCal iTC200 instrument (Malvern) with a reference power of 6 μcal/sec, an initial delay of 60 secs and a stirring speed of 750 rpm. Guanine was titrated into the sample cell in 16 injections (2.5 μl each). The injection rate was 0.5 μl/sec and the spacing between the injections was maintained at 120 sec. Data was baseline corrected and fitted to a single-site binding model to obtain association constant (KA), stoichiometry (n) and binding enthalpy, ΔH. The dissociation constant (KD) and the binding free energy, ΔG was obtained from the fitted parameters using the following relations. All data analysis was performed using the Origin ITC software.
The ITC results are reported as mean±standard deviation from three independent experiments.

[3] = transition BA (P1 folding), F 8.5 pN, 3 mM Mg^2+, 200 nM G
[4] = transition CB (J2/3 folding), F 13 pN, 3 mM Mg^2+, 200 nM G
[5] = transition C′B (L2-L3 folding), F 8.5 pN, 3 mM Mg^2+, 200 nM G
[6] = transition DC (P3 folding), F 13 pN, 3 mM Mg^2+, 200 nM G
[7] = transition ED (P2 folding), F 13 pN, 3 mM Mg^2+, 200 nM G
[8] = transition C′A (merged C′B and BA), F 6.1 pN, 5 mM Mg^2+, 1 uM G
[9] = transition DC (P3 folding), F 12.0 pN, 5 mM Mg^2+, 1 uM G
[10] = transition ED (P2 folding), F 13.5 pN, 5 mM Mg^2+, 1 uM G

B1: wt: 69-nucleotide full-length wild-type guanine sensing aptamer RNA sequence from xpt-pbuX operon in B. subtilis (SEQ ID NO: 1) (nucleic acid)
chain: CACUCAUAUAAUCGCGUGGAUAUGGCACGCAAGUUUCUACCGGGCACCGUAAAUGUCCGACUAUGGGUG
modifications: RNA, backbone and methylation of C not given here
F^eq ([1]; Closed J2/3 (CB)): ~13 pN
Time to form the native receptor structure after guanine binding ([1]; FIG. 22): ~8 μsec
Observed nucleotides ([1]; J2/3 (CB), 13 pN): 8.4 ± 0.2
Observed ΔXobs ([1]; J2/3 (CB), 13 pN): 3.5 ± 0.1 (CF) nm
Observed ΔXobs ([1]; L2-L3 (C′B), 8.5 pN): 3.4 ± 0.1 (CF) nm
F^eq ([1]; L2-L3 (C′B)): 8.72 ± 0.11 pN
k^eq ([1]; L2-L3 (C′B)): 0.82 ± 0.06 s⁻¹
F^eq ([1]; P1 (BA)): 8.21 ± 0.11 pN
k^eq ([1]; P1 (BA)): 0.55 ± 0.09 s⁻¹
Observed nucleotides ([1]; P1+ junctions (BA), 8.5 pN): 21.7 ± 0.5
Observed ΔXobs ([1]; P1+ junctions (BA), 8.5 pN, 2 nm helix width subtracted): 8.0 ± 0.2 (CF) nm
F^eq ([1]; P2 (ED)): 13.49 ± 0.03 pN
k^eq ([1]; P2 (ED)): 13.20 ± 0.20 s⁻¹
Observed nucleotides ([1]; P2 hairpin (ED), 13 pN): 17±1
Observed ΔXobs ([1]; P2 hairpin (ED), 13 pN): 7.1 ± 0.4 (CF) nm
F^eq ([1]; P3 (DC)): 12.19 ± 0.02 pN
k^eq ([1]; P3 (DC)): 16.80 ± 0.30 s⁻¹
Observed nucleotides ([1]; P3 hairpin (DC), 13 pN): 19±1 and 18.9 ± 1
Observed ΔXobs ([1]; P3 hairpin (DC), 13 pN): 7.9 ± 0.4 (CF) nm
Barrier ΔGP1^‡ before folding of the P1-stem ([1]; free energy landscape transformed to zero force): ~6 kBT
F^eq for P2-P3 ([1]; guanine-aptamer): ~13 pN
Rates for the two hairpins P2 and P3 ([1]; range over Table 1): 8.5 to 32.3 s⁻¹
Equilibrium force F^eq ([1]; transition BA (P1 folding), 3 mM Mg^2+, 200 nM G (rates at 8.5 pN)): 8.2 ± 0.1 pN
Folding rate kf [1, 3]: 0.4 ± 0.03 s⁻¹
Unfolding rate ku [1, 3]: 0.7 ± 0.09 s⁻¹
Transition distance ΔX ([1]; transition BA (P1 folding), F 8.5 pN, 3 mM Mg^2+, 200 nM G, no helix width adjustment): 9.9 ± 0.2 nm
ΔG (0) ([1]; transition BA (P1 folding), zero force, from data at 8.5 pN, 3 mM Mg^2+, 200 nM G): −13.9 ± 0.4 kBT
ΔG (0) ([1]; transition BA (P1 folding), zero force, from data at 8.5 pN, 3 mM Mg^2+, 200 nM G, listed as wild-type): −13.9 kBT
Transition distance ΔX [1, 4]: 3.5 ± 0.1 nm
Unfolding rate ku [1, 4]: 2.6 ± 0.5 s⁻¹
ΔG (0) ([1]; transition CB (J2/3 folding), zero force, ΔG(0) = −F·ΔX + ΔGstretch, 3 mM Mg^2+, 200 nM G): −7.2 ± 0.3 kBT
Equilibrium force F^eq ([1]; transition C′B (L2-L3 folding), 3 mM Mg^2+, 200 nM G (rates at 8.5 pN)): 8.7 ± 0.1 pN
Folding rate kf [1, 5]: 0.9 ± 0.06 s⁻¹
Transition distance ΔX [1, 5]: 3.4 ± 0.1 nm
Unfolding rate ku [1, 5]: 0.8 ± 0.05 s⁻¹
ΔG (0) ([1]; transition C′B (L2-L3 folding), zero force, from data at 8.5 pN, 3 mM Mg^2+, 200 nM G): −7.1 ± 0.2 kBT
Equilibrium force F^eq ([1]; transition DC (P3 folding), 3 mM Mg^2+, 200 nM G (rates at 13 pN)): 12.2 ± 0.02 pN
Equilibrium force F^eq ([1]; transition DC (P3 folding), 3 mM Mg^2+, 200 nM G (rates at 13 pN), listed as wild-type): 12.2±0.02 pN
Folding rate kf [1, 6]: 8.5 ± 0.1 s⁻¹
Transition distance ΔX [1, 6]: 7.9±0.4 nm
Unfolding rate ku [1, 6]: 32.3 ± 0.5 s⁻¹
ΔG (0) ([1]; transition DC (P3 folding), zero force, from data at 13 pN, 3 mM Mg^2+, 200 nM G): −16.3 ± 0.3 kBT
ΔG (0) ([1]; transition DC (P3 folding), zero force, from data at 13 pN, 3 mM Mg^2+, 200 nM G, listed as wild-type): −16.3 kBT
Equilibrium force F^eq ([1]; transition ED (P2 folding), 3 mM Mg^2+, 200 nM G (rates at 13 pN)): 13.5 ± 0.03 pN
Equilibrium force F^eq ([1]; transition ED (P2 folding), 3 mM Mg^2+, 200 nM G (rates at 13 pN), listed as wild-type): 13.5±0.03 pN
Folding rate kf [1, 7]: 20.0 ± 0.4 s⁻¹
Transition distance ΔX [1, 7]: 7.1±0.4 nm
Unfolding rate ku [1, 7]: 8.9 ± 0.1 s⁻¹
ΔG (0) ([1]; transition ED (P2 folding), zero force, from data at 13 pN, 3 mM Mg^2+, 200 nM G): −16.7 ± 0.3 kBT
Net free energy change ΔΔGaptamer ([1]; zero force, guanine-bound receptor structure): −81 kT
ΔG of guanine binding ([2]; 30° C.): -11.63 ± 0.20 kcal/mol
ΔH of guanine binding ([2]; 30° C.): -63.7 ± 1.1 kcal/mol
Kd ([2]; 30° C., 50 mM K^+ Hepes pH 7.5, 100 mM KCl, 10 mM MgCl2, read-out: KD for guanine): 4.22 ± 0.6 nM

B2: m1: m1 mutant guanine sensing aptamer RNA (SEQ ID NO: 2); G37 replaced with adenine in the L2 loop (nucleic acid)
chain: CACUCAUAUAAUCGCGUGGAUAUAGCACGCAAGUUUCUACCGGGCACCGUAAAUGUCCGACUAUGGGUG
modifications: RNA, backbone and methylation of C not given here
notes: G37 replaced with adenine in the L2 loop
Equilibrium force F^eq ([1]; transition C′A (merged C′B and BA), 5 mM Mg^2+, 1 uM G (rates at 6.1 pN)): 6 pN and 6.0 ± 0.03 pN
Folding rate kf [1, 8]: 0.6 ± 0.05 s⁻¹
Transition distance ΔX [1, 8]: 12.4 ± 0.3 nm
Unfolding rate ku [1, 8]: 0.6 ± 0.05 s⁻¹
ΔG (0) ([1]; transition C′A (merged C′B and BA), zero force, from data at 6.1 pN, 5 mM Mg^2+, 1 uM G): −12.4 ± 0.5 kBT
Equilibrium force F^eq ([1]; transition DC (P3 folding), 5 mM Mg^2+, 1 uM G (rates at 12.0 pN)): 12.2 ± 0.01 pN
Folding rate kf [1, 9]: 20.7 ± 0.4 s⁻¹
Transition distance ΔX [1, 9]: 7.7 ± 0.3 nm
Unfolding rate ku [1, 9]: 15.2 ± 0.3 s⁻¹
ΔG (0) ([1]; transition DC (P3 folding), zero force, from data at 12.0 pN, 5 mM Mg^2+, 1 uM G): −15.9 ± 0.9 kBT
Equilibrium force F^eq ([1]; transition ED (P2 folding), 5 mM Mg^2+, 1 uM G (rates at 13.5 pN)): 13.4 ± 0.01 pN
Folding rate kf [1, 10]: 11.8 ± 0.3 s⁻¹
Transition distance ΔX [1, 10]: 7.2 ± 0.2 nm
Unfolding rate ku [1, 10]: 15.1 ± 0.3 s⁻¹
ΔG (0) ([1]; transition ED (P2 folding), zero force, from data at 13.5 pN, 5 mM Mg^2+, 1 uM G): −16.6 ± 0.7 kBT
KD off relative to wild-type [2]: 35 fold
ΔG of guanine binding ([2]; 30° C.): -9.52 ± 0.22 kcal/mol
